Assay results: PMC11763500
Where “and” joins values, the source holds several entries; their conditions need not be identical. Equal values may be shown once.

Tests used:
[1] = molecular target: SARS-CoV-2 spike (S) protein, Omicron (SARS-CoV-2 Omicron variant) (UniProt P0DTC2); assay: electrochemical aptasensor (DPV); details: 5' di-DTPA (2 dithiol phosphoramidite groups), on gold with PEG 2000 backfill
[2] = molecular target: SARS-CoV-2 spike (S) protein, alpha (SARS-CoV-2 alpha variant) (UniProt P0DTC2); assay: electrochemical aptasensor (DPV); details: 5' di-DTPA (2 dithiol phosphoramidite groups), on gold with PEG 2000 backfill
[3] = molecular target: SARS-CoV-2 spike (S) protein, beta (SARS-CoV-2 beta variant) (UniProt P0DTC2); assay: electrochemical aptasensor (DPV); details: 5' di-DTPA (2 dithiol phosphoramidite groups), on gold with PEG 2000 backfill
[4] = molecular target: SARS-CoV-2 spike (S) protein, Omicron (SARS-CoV-2 Omicron variant) (UniProt P0DTC2); assay: SPR; details: 5' di-DTPA (2 dithiol phosphoramidite) in printed sequence; not stated whether present in SPR analyte

Sequence	binding signal [1]	binding signal [2]	binding signal [3]	Kd [4]
GGGGGCGTCAAGCGGGGTCACATCGGAGTAGGGAATCTTG [C9t di-DTPA (surface-immobilized)]	1240 dI/I0	17.9 dI/I0 and 31.9 dI/I0	27.1 dI/I0 and 43.6 dI/I0	
GGGGGCGTCAAGCGGGGTCACATCGGAGTAGGGAATCTTG [C9t (SPR)]				14.6 nM
